Source: patent US20170166631A1 (published 2017)
Like-named read-outs stand apart in the source and are kept apart here.

Experiments:
Test in all cases: ELISA
[1] = target: T1, HD21 (huntingtin exon 1 protein with 21 polyQ repeats after cleavage of the GST tag; aggregation reaction) (human, UniProt P42858 1-88)
T1 chain: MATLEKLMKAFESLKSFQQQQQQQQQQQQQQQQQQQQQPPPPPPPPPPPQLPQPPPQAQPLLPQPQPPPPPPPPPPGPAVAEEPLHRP

[2] = target: T2, HD49 (huntingtin exon 1 protein with 49 polyQ repeats after cleavage of the GST tag; aggregation reaction) (human, UniProt P42858 1-88)
T2 chain: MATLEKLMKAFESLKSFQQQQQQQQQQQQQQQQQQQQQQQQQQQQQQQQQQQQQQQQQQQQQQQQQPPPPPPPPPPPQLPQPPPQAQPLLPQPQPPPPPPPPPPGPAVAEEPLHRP

[3] = target: T3, GST-HttExon1Q21 (recombinant huntingtin exon 1 protein with 21 polyQ repeats fused to an N-terminal GST tag) (;human, UniProt P08515 1-218 = GST; P42858 1-88)
[4] = target: T1, HD21 (huntingtin exon 1 protein with 21 …)
[5] = target: T2, HD49 (huntingtin exon 1 protein with 49 …)
[6] = target: T3, GST-HttExon1Q21 (recombinant huntingtin …); remark: listed apart in the source
Target sequence in this assay (P08515 1-218, tags or fused parts left off): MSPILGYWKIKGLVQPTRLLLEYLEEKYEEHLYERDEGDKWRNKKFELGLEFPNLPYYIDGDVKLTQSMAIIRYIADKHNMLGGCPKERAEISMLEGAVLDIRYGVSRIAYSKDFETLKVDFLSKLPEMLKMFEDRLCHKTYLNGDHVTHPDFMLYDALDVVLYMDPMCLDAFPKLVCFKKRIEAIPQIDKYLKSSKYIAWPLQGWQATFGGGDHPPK

[7] = target: T2, HD49 (huntingtin exon 1 protein with 49 …)
[8] = target: T3, GST-HttExon1Q21 (recombinant huntingtin …); remark: listed apart in the source
[9] = target: T1, HD21 (huntingtin exon 1 protein with 21 …)
[10] = target: T2, HD49 (huntingtin exon 1 protein with 49 …)
[11] = target: T3, GST-HttExon1Q21 (recombinant huntingtin …); remark: listed apart in the source
Target sequence in this assay (P08515 1-218, tags or fused parts left off): as above

[12] = target: T1, HD21 (huntingtin exon 1 protein with 21 …)
[13] = target: T3, GST-HttExon1Q21 (recombinant huntingtin …); remark: listed apart in the source
[14] = target: T4, BSA-coupled synthetic peptide of the P-rich domain sequence of huntingtin exon 1 (coupled to BSA)
T4 peptide: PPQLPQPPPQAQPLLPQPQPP

[15] = target: T1, HD21 (huntingtin exon 1 protein with 21 …)
[16] = target: T2, HD49 (huntingtin exon 1 protein with 49 …)
[17] = target: T3, GST-HttExon1Q21 (recombinant huntingtin …); remark: listed apart in the source

B1: NI-302.74C11 (antibody, V domains shown)
VH: EVQLVQSGTEVQKPGASVKVSCKASGYSFTGYFLHWVRQAPGQGLEWMGWINPNSGDTNYAEKFRGRIIMTRDTSVSTAHMELSSLRFDDTALYYCTREAPDPGAETDVWGQGTTVTVSS
VL: QSVLTQPPSVSVSPGQTARITCSGDAVPKQYIYWYQQKPGQAPILVIYKDTQRPSGIPERFSGSNSGTTVTLTITGVQADDEGDYYCQSADSSATWVFGGGTKLTVL
**Q.** For B1, which EC50 [1] is on record?
**A.** 500 pM

**Q.** And the EC50 [2]?
**A.** 500 pM

**Q.** What about the EC50 [3] of the same binder?
**A.** 500 pM

**Q.** What about the EC50 [4] of the same binder?
**A.** 500 pM

**Q.** And the EC50 [5]?
**A.** 500 pM

**Q.** What about the EC50 [6] of the same binder?
**A.** 500 pM

B2: NI-302.8M1 (antibody, V domains shown)
VH: EVQLVQSGAEVKKPGASVKVSCKASGYTFTIYYMHWVRQAPGQGLEWMGGISPSGAHTMYAQNFQGRVTVTRDTSTSTVYMELSSLRSEDTAVYYCARGSTVTNYRPFDYWGQGTLVTVSS
VL: DIQMTQSPSSLSASVGDRVTITCRASQDISNYLAWYQQKPGKVPKLLIFAASTLQSGVPSRFGGSGSGTDFTLTISSLQPEDVATYYCQNYNSGPPPFGPGTKVDIK
**Q.** How did the EC50 [7] turn out when B2 was run?
**A.** 3 pM

**Q.** And the EC50 [8]?
**A.** 2 pM

**Q.** What about the EC50 [5] of the same binder?
**A.** 3 pM

**Q.** And the EC50 [6]?
**A.** 2 pM

B3: NI-302.4A6 (antibody, V domains shown)
VH: EVQLVESGGGLVQPGGSLRLSCAASGFTFSAYAMSWVRQAPGKGLEWVSTISGSGGSTYYADSVKGRFSISRDNSKNTLYLQMNSLRAEDTAVYFCAKVTTELYGANSYYYYMDVWGKGTTVTVSS
VL: EIVLTQSPGTLSLSPGERATLSCRASQSVVSRYLAWYQQKPGQAPRLLIYGASSRATGIPDRFSGSGSGTDFTLTISRLEPEDFAMYYCQLYGNSQTFGQGTKVEIK
**Q.** B3 was tested. Which EC50 [7] did it give?
**A.** 3000 pM

**Q.** What about the EC50 [8] of the same binder?
**A.** 3000 pM

**Q.** And the EC50 [5]?
**A.** 3000 pM

**Q.** What about the EC50 [6] of the same binder?
**A.** 3000 pM

B4: NI-302.6N9 (antibody, V domains shown)
VH: EVQLVESGGDLVQPGGSLRLSCVVSGFTFSSYAMTWVRQAPGKGLAWVSTISATGGSTFYTDSVRGRFTISRDNSKNTLYLQMNSLRTDDTAIYYCVKDLFGVDTSYYGMDVWGQGTTVTVSS
VL: EIVLTQSPGTLSLSPGERATLSCRPSQSVSGRYVAWYQQKPGQAPRLLFYAASNRAIGIPDRFSGSGSGTDFTLTISRLEPEDFAVYYCQHYGASSYTFGPGTKVDIK
**Q.** How did the EC50 [1] turn out when B4 was run?
**A.** 210 pM

**Q.** And the EC50 [2]?
**A.** 190 pM

**Q.** And the EC50 [3]?
**A.** 240 pM

**Q.** What about the EC50 [4] of the same binder?
**A.** 210 pM

**Q.** And the EC50 [5]?
**A.** 190 pM

**Q.** What about the EC50 [6] of the same binder?
**A.** 240 pM

B5: NI-302.52C9 (antibody, V domains shown)
VH: EVQLVQSGGGLVQPGGSLRLSCAGSGFTVSDTYMSWVRQAPGKGLEWVSGIHAGGETYYADSVKGRFTISRDNSKNTLYLQMNRLTPEDTAVFYCARHYYGNDDDTDYWGQGTLVTVSS
VL: DVVMTQSPLSLPVTPGEPASISCRSSQSLLHSNGYNYLDWYVQKPGQSPQLLIYLGSTRASGVPDRFSGSGSGTDFTLKISRVEAEDVGVYYCLQAQQIPWTFGQGTKVEIK
**Q.** With B5 as the binder, how does the EC50 [9] read?
**A.** 28000 pM

**Q.** And the EC50 [10]?
**A.** 30000 pM

**Q.** And the EC50 [11]?
**A.** 10200 pM

B6: NI-302.7D8 (antibody, V domains shown)
VH: QVQLVQSGSELKKPGASVKVSCKASGYNFNNYAINWLRQAPGQGLEWMGWINTITGHPTYAQGFKGRFVFSLDTSVSTAYLQISSLKPEDTAVYYCARTYSNYGEFDYWGQGTLVTVSS
VL: QSALTQPASVSGSRGQSITISCTGTSSDVGSYNLVSWYQQYPGKAPKLIIHEGSERPSGVSNRFSGSKSGNTASLTISGLQAEDEADYYCCSYAGTTTFVLFGGGTKLTVL
**Q.** B6 was tested. Which EC50 [12] did it give?
**A.** > 100000 pM

**Q.** What about the EC50 [13] of the same binder?
**A.** 51000 pM

**Q.** What about the EC50 [4] of the same binder?
**A.** > 100000 pM

**Q.** What about the EC50 [6] of the same binder?
**A.** 51000 pM

B7: NI-302.18A1 (antibody, V domains shown)
VH: QLQLQESGPGLVKPSEALSLTCTVSGGSITTDYYYWGWIRQSPGKGLEWVGTIYFGGATYYNPSLRNRVSISVDTSNTRLSLRLISLSAADTAVYYCARVGYLDRSGLLVGQGTLVTVSS
VL: EIVLTQSPLSVPVTPGEPASISCRSSQSLLHNNGYNYLDWYLKKPGQSPQLLIYLGSTRASGVPDRFSASGSGTDFTLEISRVEAEDVGVYYCMQALQTPPTFGRGTKVEIK
**Q.** What does the source list for B7?
**A.** EC50 [9]: 20 pM; EC50 [10]: 30 pM; EC50 [11]: 40 pM

B8: NI-302.31F11 (antibody, V domains shown)
VH: EVQLVESGGGLIQPGGSLRLSCAASGFTVSSTYMSWVRQAPGKGLECVSVIFSGADTYYADSVKGRFTVSRDNSKNTLFLQMNSLRVEDTATYYCVRHYYGSDLPSDFWGQGTLVTVSS
VL: DVVMTQSPLSLPVAPGEPASISCRSSQSLLYSNGYNYLDWYLQKPGKPPQLLVYLGSDRASGVPDRFSGSGSGKDFTLNISRVEAEDVGVYYCMQGLQSPWTFGQGTKLEIK
**Q.** What does the source list for B8?
**A.** EC50 [1]: 4300 pM; EC50 [2]: 600 pM; EC50 [3]: 900 pM; EC50 [14]: 500 pM; EC50 [4]: 4300 pM; EC50 [5]: 600 pM; EC50 [6]: 900 pM

B9: NI-302.55D8 (antibody, V domains shown)
VH: QVQLVQSGSEVKKPGASVKVSCKASGYTFTDYYIHWVRQAPGQGLEWMGRINPNNGGTNYAQNFQGWVTMTRDTSISTAYMELSRLRSDDTAVYYCARVGGELLREGGYHYYMDVWGKGTTVTVSS
VL: QSVLTQPPSVSGAPGQRVTISCTGNSSNIGAGYDVHWYQQLPGTAPKLLIFDNTNRPSGVPDRFSGSKSGTSASLAITGLQAEDEANYHCQSYDNSLSGSWVFGGGTKLTVL
**Q.** What does the source list for B9?
**A.** EC50 [15]: 1200 pM; EC50 [16]: 1700 pM; EC50 [17]: ~200 pM; EC50 [9]: 1200 pM; EC50 [10]: 1700 pM; EC50 [11]: 200 pM

B10: NI-302.15F9 (antibody, V domains shown)
VH: EVQLVESGGGLVTPGGSLRLSCEASGFLFKNSSMNWVRQTPGKGLEWVSSIDTSATNYKYYADSVKGRFTISRDDATNSLYLQMNSLRADDTATYYCARGYYTPRDFDYWGQGTLVTVSS
VL: DVVMTQSPQTLSVSLGQAASISCRSSQSLLYRDNNTYLNWFHQRPGQSPRRLIYRASDRDSGVPDRFSGGGSGTDFTLKISGVEAEDVGTYYCMQGTHWPRTFGQGTKVEIK
**Q.** How did the EC50 [4] turn out when B10 was run?
**A.** 35000 pM

**Q.** And the EC50 [5]?
**A.** 6000 pM

**Q.** What about the EC50 [6] of the same binder?
**A.** 11000 pM

B11: NI-302.8F1 (antibody, V domains shown)
VH: EVQLVESGGGLVKPGGSLTISCAASGFTFSNAWMNWVRQAPGKGLEWVGHIRTQAEGGTSDYAAPVKGRFTISRDDSKNTLYLQMNSLKTEDTAVYYCIPPPYYYYYGLDVWGQGTTVTVSS
VL: QSALTQPASVSGSPGQSITISCTGASSDVGTYDLVSWYQQHPGKAPKLIIYEVNKRPSGVSYRFSASKSANTASLTISGLQAEDEAEYYCCSYAGYSTVFGGGTKLTVL
**Q.** Which results are given for B11?
**A.** EC50 [9]: 1600 pM; EC50 [10]: 1900 pM; EC50 [11]: 800 pM

B12: NI-302.12H2 (antibody, V domains shown)
VH: EVQLVQSGGGLVQPGGSLRLSCEASGFTFSNYAMGWVRQAPGKGLEWVSVISGTGGSTYYADSVKGRFTISRDNSMNTLYLQMNSPRADDTAVYYCAKDLRKISGPLYYYGMDVWGQGTTVTVSS
VL: EIVLTQSPGTLSLSPGERATLSCRASQSVSSGYLAWYQQKPGQAPRLLIYGASTRATGIPDRFSGSGSGTDFTLTISRLEPEDFAVYYCQHYGASSYTFGQGTKLEIK
**Q.** B12 was tested. Which EC50 [7] did it give?
**A.** 40 pM

**Q.** What about the EC50 [8] of the same binder?
**A.** 40 pM

**Q.** What about the EC50 [5] of the same binder?
**A.** 40 pM

**Q.** And the EC50 [6]?
**A.** 40 pM
